From patent US20260242489A1 (HUAHUI HEALTH, published 2026)
Read-outs that look alike come from different tables or passages of the source.

Legend:
[1] = target: T1, mEGFR ECR (His6-Avi-tagged) (mouse, UniProt Q01279 25-644); assay: IgG1 ELISA at pH 6.5, mEGFR ECR against hEGFR ECR
T1 construct: also called mouse EGFR; not shown: His6-Avi tag

hEGFR ECR H370A [2] = target: T2, hEGFR ECR H370A (human, UniProt P00533 25-642); assay: IgG1 ELISA, pH 6.5 and pH 7.4 (EC50 ratio pH 7.4/pH 6.5)
[3] = target: T3, hEGFR ECR-His6-Avi-Biotin (human, UniProt P00533 25-642, biotinylated on the Avi tag using BirA ligase); assay: ELISA: hEGFR ECR on plate, IgG1 titrated, anti-hFc-HRP; pH 6.5 [table]
T3 construct: also called WT hEGFR ECR; human EGFR ECD; not shown: His6-Avi tag

[4] = target: T3, hEGFR ECR-His6-Avi-Biotin; assay: ELISA: hEGFR ECR on plate, IgG1 titrated, anti-hFc-HRP; pH 7.4 [table]
[5] = target: T1, mEGFR ECR (His6-Avi-tagged); assay: ELISA: mEGFR ECR on plate, IgG1 titrated, anti-hFc-HRP; pH 6.5 [table]
[6] = target: T1, mEGFR ECR (His6-Avi-tagged); assay: ELISA: mEGFR ECR on plate, IgG1 titrated, anti-hFc-HRP; pH 7.4 [table]
[7] = target: T3, hEGFR ECR-His6-Avi-Biotin; assay: ELISA: WT hEGFR ECR on plate, IgG1 titrated, anti-hFc-HRP; pH 6.5 [table]
[8] = target: T3, hEGFR ECR-His6-Avi-Biotin; assay: ELISA: WT hEGFR ECR on plate, IgG1 titrated, anti-hFc-HRP; pH 7.4 [table]
[9] = target: T3, hEGFR ECR-His6-Avi-Biotin; assay: ELISA: hEGFR ECR on plate, IgG1 titrated, anti-hFc-HRP; pH 6.0 [left panel]
[10] = target: T3, hEGFR ECR-His6-Avi-Biotin; assay: ELISA: hEGFR ECR on plate, IgG1 titrated, anti-hFc-HRP; pH 7.4 [left panel]
hEGFR ECR H370A [11] = target: T2, hEGFR ECR H370A; assay: ELISA: hEGFR ECR H370A on plate, IgG1 titrated, anti-hFc-HRP; pH 6.5 [table]
hEGFR ECR H370A [12] = target: T2, hEGFR ECR H370A; assay: ELISA: hEGFR ECR H370A on plate, IgG1 titrated, anti-hFc-HRP; pH 7.4 [table]
hEGFR ECR H433A = hEGFR ECR H433A (human, UniProt P00533 25-642); assay: ELISA: hEGFR ECR H433A on plate, IgG1 titrated, anti-hFc-HRP; pH 6.5 and pH 7.4
[13] = target: T3, hEGFR ECR-His6-Avi-Biotin; assay: ELISA: hEGFR ECR on plate, IgG1 titrated, anti-hFc-HRP; EC50 at pH 7.4 over EC50 at pH 6.5 [table]
[14] = target: T1, mEGFR ECR (His6-Avi-tagged); assay: ELISA: mEGFR ECR on plate, IgG1 titrated, anti-hFc-HRP; EC50 at pH 7.4 over EC50 at pH 6.5 [table]
[15] = target: T3, hEGFR ECR-His6-Avi-Biotin; assay: ELISA: WT hEGFR ECR on plate, IgG1 titrated, anti-hFc-HRP; EC50 at pH 7.4 over EC50 at pH 6.5 [table]
hEGFR ECR H370A [16] = target: T2, hEGFR ECR H370A; assay: ELISA: hEGFR ECR H370A on plate, IgG1 titrated, anti-hFc-HRP; EC50 at pH 7.4 over EC50 at pH 6.5 [table]
[17] = target: T3, hEGFR ECR-His6-Avi-Biotin; assay: competition ELISA: hEGFR ECR on plate, IgG1 titrated in a mixture with EGF-mFc, bound EGF-mFc detected with anti-mFc-HRP; pH 6.0 [left panel]
[18] = target: T3, hEGFR ECR-His6-Avi-Biotin; assay: ELISA: hEGFR ECR on plate, IgG1 titrated, anti-hFc-HRP; pH 6.5 [table]; remark: listed apart in the source
[19] = target: T3, hEGFR ECR-His6-Avi-Biotin; assay: ELISA: hEGFR ECR on plate, IgG1 titrated, anti-hFc-HRP; pH 7.4 [table]; remark: listed apart in the source
[20] = target: T3, hEGFR ECR-His6-Avi-Biotin; assay: ELISA: G5V2 IgG1 coated on plate, antigen titrated, HRP-labeled His-Tag antibody; pH 7.4
hEGFR ECR H370A [21] = target: T2, hEGFR ECR H370A; assay: as above
[22] = target: T3, hEGFR ECR-His6-Avi-Biotin; assay: as above; remark: listed apart in the source
[23] = target: T3, hEGFR ECR-His6-Avi-Biotin; assay: ELISA: hEGFR ECR on plate, IgG1 titrated, anti-hFc-HRP; EC50 at pH 7.4 over EC50 at pH 6.5 [table]; remark: listed apart in the source
[24] = target: human EGFR domain III (human) (UniProt P00533); assay: ELISA: antibody coated on plate, hEGFR domain III titrated (Log[Ag] nM), detected through its His tag; pH not given [table]
[25] = target: T3, hEGFR ECR-His6-Avi-Biotin; assay: ELISA: antibody coated on plate, hEGFR ECR titrated (Log[Ag] nM), detected through its His tag; pH not given [table]
[26] = target: T3, hEGFR ECR-His6-Avi-Biotin; assay: phage display Fab ELISA on hEGFR ECR
[27] = target: T3, hEGFR ECR-His6-Avi-Biotin; assay: phage display Fab ELISA on hEGFR ECR, pH 6.5
[28] = target: T3, hEGFR ECR-His6-Avi-Biotin; assay: phage display Fab ELISA on hEGFR ECR, pH 6.5 and pH 7.4
[29] = target: T3, hEGFR ECR-His6-Avi-Biotin; assay: phage ELISA: hEGFR ECR on plate, phage display Fab titrated, anti-M13-HRP; EC50 at pH 7.4 over EC50 at pH 6.5 [table]

B1: 14C07 (full-length human IgG1 form) (antibody, V domains shown)
VH: QVQLVQSGAEVKRPGSSVKVSCKASGGTFSSYAISWVRQAPGQGLEWMGGIIPIFGTANYAQKFQGRVTITADESTSTAYMELSSLRSEDTAVYYCARDSSSGWYDYFDYWGQGTLVTVSS
VL: QPVLTQPPSVSAAPGAMARITCESPDIGSKSVQWYQQRPGQAPILVIYYDDDRPSGIPERFSGSNSGNTAALTINWVEPEDEADYYCQAWDDSDPVVFGGGTQLTVLG
EC50 ratio, mEGFR/hEGFR (pH 6.5) [1]: 8.73 | fold weaker pH-dependency of binding than with WT EGFR ECR (hEGFR ECR H370A [2]): > 2 fold | EC50 [3]: 48 pM | EC50 [4]: 155 pM | EC50 [5]: 419 pM | EC50 [6]: 2730 pM | EC50 [7]: 301 pM | EC50 [8]: 818 pM | EC50 [9]: 20 pM | EC50 [10]: 662 pM | EC50 (hEGFR ECR H370A [11]): 433 pM | EC50 (hEGFR ECR H370A [12]): 462 pM | binding result (hEGFR ECR H433A): no binding (tested: 100 nM (Log[Ab] 2)) | EC50 ratio (pH 7.4/pH 6.5) [13]: 3.23 | EC50 ratio (pH 7.4/pH 6.5) [14]: 6.52 | EC50 ratio (pH 7.4/pH 6.5) [15]: 2.72 | EC50 ratio (pH 7.4/pH 6.5) (hEGFR ECR H370A [16]): 1.07 | IC50 [17]: 29000 pM

B2: G5V2 (human IgG1 form) (antibody, V domains shown)
VH: QVQLVQSGAEVKRPGSSVKVSCKASGGISDGSAISWVRQAPGQGLEWMGGIYFFNGNTNYAQKFQGRVTITADESTSTAYMELSSLRSEDTAVYYCARDSSLGYYDYFDYWGQGTLVTVSS
VL: QPVLTQPPSVSAAPGQTARITCGGNNIGEKYVQWYQQRPGQAPVLVIYYDDDRPSGIPERFSGSNSGNTAALTINSVEAGDEADYYCQAWDDYDPVVFGGGTQLTVLG
EC50 ratio, mEGFR/hEGFR (pH 6.5) [1]: 1.23 | EC50 [3]: 30 pM | EC50 [4]: 31 pM | EC50 [5]: 37 pM | EC50 [6]: 46 pM | EC50 [18]: 502 pM | EC50 [19]: 595 pM | EC50 (read off the curve) [20]: ~2000 pM | EC50 (read off the curve) (hEGFR ECR H370A [21]): ~3000 pM | EC50 (read off the curve) [22]: ~3000 pM | EC50 ratio (pH 7.4/pH 6.5) [13]: 1.03 | EC50 ratio (pH 7.4/pH 6.5) [14]: 1.24 | EC50 ratio (pH 7.4/pH 6.5) [23]: 1.19 | EC50 [24]: 2370 pM | EC50 [25]: 1240 pM

B3: G5V2 Y32E (phage display Fab form) (Fab, V domains shown)
VH: QVQLVQSGAEVKRPGSSVKVSCKASGGISDGSAISWVRQAPGQGLEWMGGIYFFNGNTNYAQKFQGRVTITADESTSTAYMELSSLRSEDTAVYYCARDSSLGYYDYFDYWGQGTLVTVSS
VL: QPVLTQPPSVSAAPGQTARITCGGNNIGEKEVQWYQQRPGQAPVLVIYYDDDRPSGIPERFSGSNSGNTAALTINSVEAGDEADYYCQAWDDYDPVVFGGGTQLTVL
notes: Y32 is Kabat numbering
fold higher binding affinity over G5V2 Y32D [26]: ~3 fold | fold decrease of binding affinity at pH 6.5 against G5V2 [27]: ~8 fold | fold higher pH-dependent binding over WT G5V2 [28]: ~13 fold | EC50 ratio (pH 7.4/pH 6.5) [29]: 15.6
